We go through three molecules from patent US20080027001A1, “NOGO RECEPTOR FUNCTIONAL MOTIFS, PEPTIDE MIMETICS, AND MUTATED FUNCTIONAL MOTIFS RELATED THERETO, AND METHODS OF USING THE SAME” (priority 2006, published 2008).

T1: MAG-AP (Homo sapiens, UniProt P20916)
T1 construct: human MAG; NM_002361; amino acids 1-516; made in house; NgR1 transiently transfected into COS-7 cells
T1 sequence (P20916 20-516): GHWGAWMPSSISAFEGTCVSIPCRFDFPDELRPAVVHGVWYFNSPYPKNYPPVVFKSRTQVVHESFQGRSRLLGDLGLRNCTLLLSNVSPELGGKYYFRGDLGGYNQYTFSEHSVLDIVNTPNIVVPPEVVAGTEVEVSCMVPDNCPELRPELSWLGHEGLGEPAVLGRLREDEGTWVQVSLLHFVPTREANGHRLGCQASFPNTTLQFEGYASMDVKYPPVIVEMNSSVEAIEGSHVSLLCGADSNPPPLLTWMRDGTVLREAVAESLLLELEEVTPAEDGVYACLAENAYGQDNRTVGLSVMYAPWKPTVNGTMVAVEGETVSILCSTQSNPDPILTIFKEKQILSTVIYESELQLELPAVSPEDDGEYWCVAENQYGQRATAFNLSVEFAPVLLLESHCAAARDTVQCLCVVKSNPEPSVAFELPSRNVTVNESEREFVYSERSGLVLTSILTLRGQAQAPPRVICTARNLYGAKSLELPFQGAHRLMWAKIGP

B1: EM7: human NgR1 point mutant K277D/R279D (protein)
chain: CPGACVCYNEPKVTTSCPQQGLQAVPVGIPAASQRIFLHGNRISHVPAASFRACRNLTILWLHSNVLARIDAAAFTGLALLEQLDLSDNAQLRSVDPATFHGLGRLHTLHLDRCGLQELGPGLFRGLAALQYLYLQDNALQALPDDTFRDLGNLTHLFLHGNRISSVPERAFRGLHSLDRLLLHQNRVAHVHPHAFRDLGRLMTLYLFANNLSALPTEALAPLRALQYLRLNDNPWVCDCRARPLWAWLQDFDGSSSEVPCSLPQRLAGRDLKRLAANDLQGCAVATGPYHPIWTGRATDEEPLGLPKCCQPDAADKASVLEPGRPASAGNALKGRVPPGDSPPGNGSGPRHINDSPFGTLPGSAEPPLTAVRPEGSEPPGFPTSGPRRRPGCSRKNRTRSHCRLGQAGSGGGGTGDSEGS
B2: EM11: human NgR1 point mutant R279A (protein)
chain: CPGACVCYNEPKVTTSCPQQGLQAVPVGIPAASQRIFLHGNRISHVPAASFRACRNLTILWLHSNVLARIDAAAFTGLALLEQLDLSDNAQLRSVDPATFHGLGRLHTLHLDRCGLQELGPGLFRGLAALQYLYLQDNALQALPDDTFRDLGNLTHLFLHGNRISSVPERAFRGLHSLDRLLLHQNRVAHVHPHAFRDLGRLMTLYLFANNLSALPTEALAPLRALQYLRLNDNPWVCDCRARPLWAWLQKFAGSSSEVPCSLPQRLAGRDLKRLAANDLQGCAVATGPYHPIWTGRATDEEPLGLPKCCQPDAADKASVLEPGRPASAGNALKGRVPPGDSPPGNGSGPRHINDSPFGTLPGSAEPPLTAVRPEGSEPPGFPTSGPRRRPGCSRKNRTRSHCRLGQAGSGGGGTGDSEGS
B3: EM8: human NgR1 point mutant K277A, R279A (protein)
chain: CPGACVCYNEPKVTTSCPQQGLQAVPVGIPAASQRIFLHGNRISHVPAASFRACRNLTILWLHSNVLARIDAAAFTGLALLEQLDLSDNAQLRSVDPATFHGLGRLHTLHLDRCGLQELGPGLFRGLAALQYLYLQDNALQALPDDTFRDLGNLTHLFLHGNRISSVPERAFRGLHSLDRLLLHQNRVAHVHPHAFRDLGRLMTLYLFANNLSALPTEALAPLRALQYLRLNDNPWVCDCRARPLWAWLQAFAGSSSEVPCSLPQRLAGRDLKRLAANDLQGCAVATGPYHPIWTGRATDEEPLGLPKCCQPDAADKASVLEPGRPASAGNALKGRVPPGDSPPGNGSGPRHINDSPFGTLPGSAEPPLTAVRPEGSEPPGFPTSGPRRRPGCSRKNRTRSHCRLGQAGSGGGGTGDSEGS

This test has as its target T1, MAG-AP. The test can be described thus: Cell-surface NgR binding assay, MAG-AP. The settings on record: mutant NgR1 in COS-7 cells; MAG-AP 10 μg/ml (FIG. 7B). Here is the method: COS-7 cells were cotransfected with either wild type or mutant NgR1 constructs along with a CMV-beta-galactosidase plasmid (pCMVb, BD Biosciences, San Jose, Calif.) as a transfection control. Transfection was performed in 6-well plates using Lipofectamine 2000 (Invitrogen, Carlsbad, Calif.) following the manufacturer's protocol. The next day, cells were trypsinized and seeded at 30,000 cells per well in duplicate polylysine-coated 96-well plates (BD Biosciences); one plate was used in the binding assay, and the other was used to correct for transfection efficiency by measuring beta-galactosidase activity (described below). The remaining cells were separately plated and assayed for surface expression of the NgR1 proteins by immunocytochemistry (Example 1.9) and for total NgR1 protein levels by Western blot analysis (Example 1.8). […] Binding of AP-tagged ligands was measured using the Great EscAPe SEAP Kit (BD Biosciences) following the manufacturer's recommended protocol. […] Sixty microliters of diluted CSPD® substrate (Applied Biosystems, Foster City, Calif.) was then added per well, incubated for 10 minutes at room temperature, and then read on an LMAXII luminometer (Molecular Devices). […] Beta-galactosidase activity was measured using the luminescent beta-gal detection kit II (BD Biosciences) following the manufacturer's recommended protocol. […]
Separate statistical analysis was performed for MAG-AP and Nogo-66-AP binding; a linear mixed model was fitted to the data using the receptors as the fixed effects and the experiments, replicates within each experiment, and receptor×experiment interactions as the random effects. […] Pairwise comparisons were performed between receptors in the framework of the linear mixed model, and raw p-values and Tukey-Kramer multiplicity-adjusted p-values were calculated. The corresponding 95% confidence intervals were also calculated.
(SEQ ID NO:51). […] Nogo-66-AP(C47V) concentration was determined by measuring alkaline phosphatase activity and by Western blot analysis for alkaline phosphatase. […]
Take B1: the “reduction in binding of soluble MAG (MAG-AP) relative to wild type NgR1” value turned out to be 57%.
With B2 the figure was 36%; with B3, 58%.
